We go through four molecules from patent US20200368361A1 (Regeneron, published 2020).

Test [1] has as its target T1, full length monkey MSR1 on HEK293.mfMSR1 cells (Macaca fascicularis, UniProt A0A2K5UWE2 1-451).
T1 construct: whole, on cells; also called mfMSR1 engineered cells
T1 sequence: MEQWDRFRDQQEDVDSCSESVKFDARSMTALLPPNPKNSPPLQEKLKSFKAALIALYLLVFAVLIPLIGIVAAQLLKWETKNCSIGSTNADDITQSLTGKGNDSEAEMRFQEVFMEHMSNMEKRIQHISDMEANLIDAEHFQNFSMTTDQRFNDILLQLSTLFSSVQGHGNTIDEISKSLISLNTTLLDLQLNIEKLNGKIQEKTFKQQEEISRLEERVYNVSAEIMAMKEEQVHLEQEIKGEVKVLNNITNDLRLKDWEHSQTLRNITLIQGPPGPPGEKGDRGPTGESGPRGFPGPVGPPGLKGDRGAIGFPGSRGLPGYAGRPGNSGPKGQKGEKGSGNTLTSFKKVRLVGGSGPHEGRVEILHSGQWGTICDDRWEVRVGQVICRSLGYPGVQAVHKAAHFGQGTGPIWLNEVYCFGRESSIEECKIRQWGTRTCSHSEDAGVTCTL
Nature of the test: ECL cell binding (Meso Scale), ratio to isotype control compared with parental HEK293.

Test [2] concerns the target T2, monkey MSR1 extracellular domain expressed with a N-terminal hexahistidine-myc-myc tag (HMM-mfMSR1) (monkey (Macaca fascicularis)).
T2 chain: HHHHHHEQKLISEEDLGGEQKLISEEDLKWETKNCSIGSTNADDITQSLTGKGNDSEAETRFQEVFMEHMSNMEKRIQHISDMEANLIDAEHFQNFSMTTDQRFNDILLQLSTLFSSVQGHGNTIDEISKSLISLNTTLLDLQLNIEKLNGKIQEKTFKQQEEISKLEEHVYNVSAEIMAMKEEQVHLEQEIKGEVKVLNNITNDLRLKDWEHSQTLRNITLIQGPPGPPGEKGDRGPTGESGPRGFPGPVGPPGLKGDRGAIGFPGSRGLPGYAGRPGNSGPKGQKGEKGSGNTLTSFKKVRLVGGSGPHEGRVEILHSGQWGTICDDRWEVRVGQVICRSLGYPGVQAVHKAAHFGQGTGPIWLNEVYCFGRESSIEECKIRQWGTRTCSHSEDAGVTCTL
Nature of the test: SPR Biacore, 25C, mAb captured by anti-human Fc, MSR1 as analyte; calculated from kd fixed at 1.00E-05.
Procedure: (§1) Binding affinities and kinetic constants of human anti-MSR1 antibodies for different MSR1 reagents were determined by real-time surface plasmon resonance (Biacore 4000). All binding studies were performed in 10 mM HEPES, 150 mM NaCl, 3 mM EDTA, and 0.05% v/v Surfactant Tween-20, pH 7.4 (HBS-ET) running buffer at 25° C. and 37° C.
(§2) The association rate (kₐ) and dissociation rate (kd) were determined by fitting the real-time binding sensorgrams to a 1:1 binding model with mass transport limitation using Scrubber 2.0 c curve-fitting software.

Test [3] concerns the target T3, human MSR1 extracellular domain expressed with a N-terminal nonahistidine tag (His9-hMSR1); R&D Systems, Cat … (human, UniProt P21757 77-451).
T3 construct: extracellular domain; Bought protein; also called His-hMSR1
T3 sequence: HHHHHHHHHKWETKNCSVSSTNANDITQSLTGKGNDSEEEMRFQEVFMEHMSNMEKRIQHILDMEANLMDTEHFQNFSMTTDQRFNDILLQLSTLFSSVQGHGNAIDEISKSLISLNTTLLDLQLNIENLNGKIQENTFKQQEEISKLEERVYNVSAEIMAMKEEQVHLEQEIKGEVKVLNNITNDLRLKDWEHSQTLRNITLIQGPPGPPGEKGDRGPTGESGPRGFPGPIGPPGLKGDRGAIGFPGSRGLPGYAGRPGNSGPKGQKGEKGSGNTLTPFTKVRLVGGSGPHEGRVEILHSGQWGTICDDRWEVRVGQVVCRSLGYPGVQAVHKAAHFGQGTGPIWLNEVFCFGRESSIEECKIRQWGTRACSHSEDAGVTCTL
The test is described as above.
Procedure: as §1, §2

Test [4] concerns the target T4, full length monkey MSR1 on HEK293.mfMSR1 cells (Macaca fascicularis, UniProt A0A2K5UWE2 1-451).
T4 construct: whole, on cells
T4 sequence: T1 sequence
Nature of the test: ECL cell binding, HEK293.mfMSR1.
Procedure: (§3) All cells were washed once with 1×PBS with Ca²⁺/Mg²⁺ and counted with a Cellometer™ Auto T4 cell counter (Nexcelom Bioscience). Approximately 1.0×10⁴ cells were seeded separately onto 96-well carbon electrode plates [MULTI-ARRAY high bind plate, Meso Scale Diagnostics] and incubated for 1 hour at 37° C. Non-specific binding sites were then blocked by 2% BSA (w/v) in PBS with Ca²⁺/Mg²⁺ for 1 hour at room temperature. THP-1 cells were pre-incubated for 0.5 hours at room temperature in sample dilution buffer with: 1) 1 mg/mL Fc receptor block reagents to block Fc gamma receptors on THP-1 cell surface [whole molecule human IgG (Jackson Immunoresearch, Cat #009-000-003) for wells being tested with anti-MSR1-mFc antibodies or 2) whole molecule mIgG (Jackson Immunoresearch, Cat #015-000-003) for wells being tested with anti-MSR1-hFc antibodies. Antibody binding on HEK293.Myc.hMSR1, HEK293.mfMSR1 and HEK293 cells was tested without Fc receptor block reagents. […] Plates were then washed to remove unbound antibodies an AquaMax2000 plate washer with a cell washing head (MDS Analytical Technologies). […] Plates were washed and developed with Read Buffer (Meso Scale Diagnostics, Cat #R92TD-2) according to manufacturer's recommended procedure and luminescent signals were recorded with a SECTOR Imager 600 (Meso Scale Diagnostics). Luminescence intensity, measured in relative light units (RLU), was recorded to indicate the binding intensity of each antibody at the range of concentrations.

Test [5] addresses T5, human MSR1 extracellular domain expressed with a N-terminal nonahistidine tag (human, UniProt P21757 77-451).
T5 construct: extracellular domain; Bought reagent; also called His9-hMSR1
T5 sequence: T3 sequence
Nature of the test: SPR 37C, mAb captured; no dissociation seen, kd fixed.
Procedure: as §1, §2

Test [6] addresses T6, monkey MSR1 extracellular domain expressed with a N-terminal hexahistidine-myc-myc tag (monkey (Macaca fascicularis)).
T6 construct: also called HMM-mfMSR1
T6 chain: T2 chain
The test is described as above.
Procedure: as §1, §2

Test [7] has as its target T7, full length human MSR1 with a C-terminal Myc tag on HEK293.Myc.hMSR1 cells (human, UniProt P21757 1-451).
T7 construct: whole, on cells
T7 sequence (looked up): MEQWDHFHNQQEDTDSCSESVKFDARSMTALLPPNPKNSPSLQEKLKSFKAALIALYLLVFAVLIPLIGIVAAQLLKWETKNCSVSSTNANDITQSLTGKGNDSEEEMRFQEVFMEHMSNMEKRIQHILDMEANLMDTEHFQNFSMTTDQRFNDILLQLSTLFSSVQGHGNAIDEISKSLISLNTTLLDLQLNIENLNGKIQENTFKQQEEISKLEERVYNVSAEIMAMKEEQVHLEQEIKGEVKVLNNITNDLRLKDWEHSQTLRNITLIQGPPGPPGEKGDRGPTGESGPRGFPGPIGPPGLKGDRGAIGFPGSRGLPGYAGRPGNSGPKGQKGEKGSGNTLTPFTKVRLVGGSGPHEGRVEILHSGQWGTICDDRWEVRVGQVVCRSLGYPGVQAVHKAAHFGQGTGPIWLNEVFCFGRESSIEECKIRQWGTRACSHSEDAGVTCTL
Nature of the test: ECL cell binding, HEK293.Myc.hMSR1.
Procedure: as §3

The target of test [8] is T8, mouse MSR1 on RAW264.7 cells (mouse, UniProt P30204 1-458).
T8 construct: whole, on cells
T8 sequence (looked up): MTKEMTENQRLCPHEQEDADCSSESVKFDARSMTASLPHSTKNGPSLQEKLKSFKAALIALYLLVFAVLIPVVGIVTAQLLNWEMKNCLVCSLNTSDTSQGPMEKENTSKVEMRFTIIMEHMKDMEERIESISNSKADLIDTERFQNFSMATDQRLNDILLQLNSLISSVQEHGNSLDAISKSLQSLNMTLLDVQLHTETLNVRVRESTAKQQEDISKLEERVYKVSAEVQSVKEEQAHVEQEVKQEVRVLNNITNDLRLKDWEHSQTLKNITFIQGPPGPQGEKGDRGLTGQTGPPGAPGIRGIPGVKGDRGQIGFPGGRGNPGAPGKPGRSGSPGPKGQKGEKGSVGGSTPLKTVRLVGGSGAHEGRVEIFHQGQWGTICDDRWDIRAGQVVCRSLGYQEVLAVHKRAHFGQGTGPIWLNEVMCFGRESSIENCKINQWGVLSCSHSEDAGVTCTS
Nature of the test: flow cytometry, RAW264.7 cells, 10 ug/mL.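 Further: antibodies bound to RAW264.7 cells for 30 min on ice after Fc block with mouse IgG, S/N is MFI relative to unstained cells.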
Procedure: To block binding to Fc receptors, RAW264.7 cells were incubated for 30 minutes at 4° C. with 500 μg/mL mouse IgG (Jackson ImmunoResearch, Cat #015-000-003) diluted in staining buffer, while B16F10.9 cells remained in staining buffer. Following Fc receptor blocking, 10 μg/mL of anti-MSR1 antibodies or an isotype control antibody were added to the cells and were subsequently incubated for 30 minutes on ice. […] The signal to noise (S/N) was determined by calculating the ratio of the anti-MSR1 antibodies or the control antibodies MFI to the unstained sample MFI (Table 16).

Bounds are passed on as bounds.

B1: H1xH29273P2 (antibody, V domains shown)
VH: QVQLVESGGGVVQSGRSLRLSCAAAGFTFSNYGMHWVRQAPGKGLEWVALMSFDGSDKYYADSVKGRFTISRDNSKNTLYLQMNSLRAEDTALYYCAKGYDFWSGYWDYWGQGTLVTVSS
VL: not shown
notes: The H1xH prefix is not explained for the anti-MSR1 antibodies; Fc form as tested not clear
On to B1, for which the binding result in test [1] is “no binding (tested: 11 nM)”.

B2: H1H21234N (antibody, V domains shown)
VH: QVQLQESGPGLVKPSETLSLTCTVTGGSISRNYWSWIRQPPGKGLEWIGYIYYSGSIDYNPSLKSRVTISVDTSKNQFSLKLSSMTAADTAVYYCARDRWNWKYGMDVWGQGTTVIVSS
VL: EIVLTQSPGTLSLSPGERATLSCRASQTVRNNYLAWYHQKPGQAPRLLIYGASSRATGIPDRFSGSGSGTDFTLTISRLEPEDFTVYYCHQYGNSPWTFGQGTKMEIKR
notes: original human IgG1 Fc (no N297 mutation)
Broadly, the t½ is the time in which the quantity being followed falls by half. Consider B2, for which the “t½” value in test [2] and in test [3] was 19.2 h in each case.

B3: H1H21234N-N297Q (antibody, human IgG1, V domains shown)
VH: B2 VH
VL: B2 VL
notes: human IgG1 Fc with N297Q
Usually Kd stands for the free concentration of one partner at which half of the binding sites on the other are occupied at equilibrium, for simple one-to-one binding. Consider B3, for which the “binding signal ratio to isotype control (11 nM)” value in test [4] is 35 fold; in test [7] it was 43 fold. The results for the equilibrium dissociation constant (Kd) in test [5] and in test [6] were ≤ 12.7 pM and ≤ 13.3 pM, respectively. The MFI in test [8] turned out to be 7050. In addition, the S/N in test [8] worked out at 3.

B4: H1H21234N (antibody, human IgG1, V domains shown)
VH: B2 VH
VL: B2 VL
notes: original human IgG1 Fc
For the molecule B4, the “binding signal ratio to isotype control (11 nM)” value in test [4] was 31 fold; in test [7], 32 fold. The dissociation constant (Kd) in test [5] was ≤ 14.8 pM; in test [6], ≤ 13.8 pM.
